1 molecule from patent US20240409663A1 (CONCEPT TO MEDICINE BIOTECH, published 2024) can be followed below.

The term EC50 denotes the concentration that produces a half-maximal response. By Kd is commonly meant the concentration at which binding is half-saturated. Higher therefore signals lower affinity. A word on the koff: it is the first-order rate constant of dissociation. Low readings indicate slow dissociation, high ones fast dissociation. A word on the kon: it is a measure of how fast the partners come together.

The target in assay [1] is T1, human GPC3 on cells (human, UniProt P51654 25-554).
T1 construct: whole, on cells; over-expressed on CHOK1 cells or endogenous on HEPG2, Hep3B and Huh-7 hepatocellular carcinoma cells; the cell line is named under assay; also called GPC3-CHOK1 cells; human GPC3 over-expressed CHOK1 cells
The assay can be described thus: FACS, HEPG2 cells. The protocol: Cell-based binding: FACS was used to evaluate the binding activity of 52H5D3B8 chimeric mAbs with comparison to a known GPC3 antibody GC33 (Chugai Pharmaceutical) on human GPC3 over-expressed CHOK1 cells, HEPG2 cells, Hep3B cells and Huh-7 cells.
Briefly, GPC3-CHOK1 cells, HEPG2 cells, Hep3B cells or Huh-7 cells were firstly incubated with Fc blocking reagent at 4° C. for 15 mins. Cells were washed by FACS buffer and divided to each well with 3-fold serially diluted 52H5D3B8 chimeric mAbs or GC33 mAb starting at 30 μg/mL at 4° C. for 60 mins. Cells were washed by FACS buffer and fixed with 2% PFA at RT for 15 mins. […] Samples were washed twice with FACS buffer.

In assay [2] the target is T1, human GPC3 on cells. As to the kind of experiment: FACS, Hep3B cells. The method, then: (§1) Cell-based binding: FACS was used to evaluate the binding activity of 52H5D3B8, 52H5D3B8-6 # chimeric mAbs and GC33 antibody on human GPC3 over-expressed CHOK1 cells, Hep3B cells and Huh-7 cells.
(§2) Briefly, GPC3-CHOK1 cells, Hep3B cells or Huh-7 cells were firstly incubated with Fc blocking reagent at 4° C. for 15 mins. Cells were washed by FACS buffer and divided to each well with 3-fold serially diluted 52H5D3B8, 52H5D3B8-6 # chimeric mAbs or GC33 antibody starting at 30 μg/mL at 4° C. for 60 mins. Cells were washed by FACS buffer and fixed with 2% PFA at RT for 15 mins. […] Samples were washed twice with FACS buffer.
(Flow cytometry measures light scatter and fluorescence of single cells or particles in a stream.)

Assay [3] addresses T1, human GPC3 on cells. The assay can be described thus: FACS, Huh-7 cells. The method, then: as §1, §2
Assay [4] concerns the target T1, human GPC3 on cells. As to the kind of experiment: FACS, Huh-7 cells. The protocol:
(§3) To evaluate the antigen binding property, the humanized antibodies were analyzed for their binding to human GPC3 over-expressed CHOK1 cells and Huh-7 cells by FACS. Briefly, GPC3-CHOK1 cells and Huh-7 cells were firstly incubated with Fc blocking reagent at 4° C. for 15 mins. Cells were washed by FACS buffer and divided to each well with 4-fold serially diluted humanized antibodies starting at 10 μg/mL at 4° C. for 60 mins. Cells were washed by FACS buffer and fixed with 2% PFA at RT for 15 mins. […] As different plates might affect the EC50 of 52H5D3B8-VH+VL, the 12 humanized antibodies were separated into two plates.
The source holds these as a separate data set.

For assay [5], the target named is T1, human GPC3 on cells. The assay can be described thus: FACS, GPC3-CHOK1 cells. Summed up: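 After Fc blocking (4 °C, 15 min), GPC3-CHOK1 cells were incubated for 60 min at 4 °C with 3-fold serially diluted chimeric mAbs starting at 30 μg/mL. Cells then washed and fixed in 2% PFA at room temperature for 15 min.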
The target in assay [6] is T1, human GPC3 on cells. The assay can be described thus: FACS, GPC3-CHOK1 cells. The method, then: as §3
This is another data set of the same source.

Assay [7] addresses T2, mouse GPC3 protein (mouse, UniProt Q8CFZ4 25-558, limits assumed).
T2 construct: protein coated on plates in the cross species ELISA
The assay can be described thus: ELISA, coated mouse GPC3. The protocol: (§4) ELISA testing was carried out to evaluate the binding of chimeric antibodies to human, mouse and cynomolgus GPC3, respectively.
(§5) Briefly, microtiter plates were coated with human, mouse and cynomolgus GPC3 proteins at 1 μg/ml in PBS, 100 μl/well at 4° C. overnight, then blocked with 150 μl/well of 1% BSA. Three-fold dilutions of chimeric antibodies starting from 9 μg/ml were added to each well and incubated for 1 hour at 37° C. The plates were washed with PBS/Tween and then incubate with mouse-anti-human IgG Fc antibody conjugated with Horse Radish Peroxidase (HRP) for 30 mins at 37° C. After washing, the plates were developed with TMB substrate and analyzed by spectrophotometer at OD 450 nm. The 52H5D3B8 antibody bound to human, cynomolgus GPC3 and mouse GPC3 (FIG. 3 and Table 4).
On the technique in general: An ELISA detects its analyte on a solid surface through an enzyme-linked reagent.

In assay [8] the target is T3, cynomolgus GPC3 protein (cynomolgus, UniProt A0A2K5VK50 24-553, The natural protein carries heparan sulfate chains and may be cleaved by furin between the alpha (24-357) and beta (358-553) subunits, which stay disulfide-linked. It is written here as one …).
T3 construct: protein coated on plates in the cross species ELISA
As to the kind of experiment: ELISA, coated cynomolgus GPC3. The protocol: as §4, §5

Assay [9] addresses T4, human GPC3-his tag protein (human, UniProt P51654 25-559, limits assumed).
T4 construct: recombinant soluble antigen used as analyte in all Biacore runs; also called recombinant GPC3 protein; rhGPC3-His; not shown: His tag
The assay can be described thus: SPR Biacore 8K, mAb captured, affinity ranking. The protocol: To evaluate antigen binding activity, the chimeric antibody's affinity was measured by Biacore 8K. Two concentrations with most close affinity to the chimeric antibody's affinity were chosen for the 12 humanized antibodies' affinity detection. Human GPC3-his tag protein was injected over captured antibody for 3 mins at a flow rate of 30 μl/min. The antigen was allowed to dissociate for 720 s.

In assay [10] the target is T4, human GPC3-his tag protein. As to the kind of experiment: SPR Biacore 8K, mAb captured on CM5, GPC3-his dilution series. The method, then:
The binding of the chimeric 52H5D3B8 mAb to human GPC3-his was tested with Biacore using a capture method. The 52H5D3B8 mAb was captured using CM5 sensor chip. A serial dilution of human GPC3-his tag protein was injected over captured antibody for 2 mins at a flow rate of 30 μl/min. The antigen was allowed to dissociate for 360 s. All the experiments were carried out on a Biacore 8K. Data analysis was carried out using Biacore 8K evaluation software.
In general terms: SPR reads the build-up and loss of mass on a sensor chip optically.

T2 sequence (Q8CFZ4 25-558 limits assumed): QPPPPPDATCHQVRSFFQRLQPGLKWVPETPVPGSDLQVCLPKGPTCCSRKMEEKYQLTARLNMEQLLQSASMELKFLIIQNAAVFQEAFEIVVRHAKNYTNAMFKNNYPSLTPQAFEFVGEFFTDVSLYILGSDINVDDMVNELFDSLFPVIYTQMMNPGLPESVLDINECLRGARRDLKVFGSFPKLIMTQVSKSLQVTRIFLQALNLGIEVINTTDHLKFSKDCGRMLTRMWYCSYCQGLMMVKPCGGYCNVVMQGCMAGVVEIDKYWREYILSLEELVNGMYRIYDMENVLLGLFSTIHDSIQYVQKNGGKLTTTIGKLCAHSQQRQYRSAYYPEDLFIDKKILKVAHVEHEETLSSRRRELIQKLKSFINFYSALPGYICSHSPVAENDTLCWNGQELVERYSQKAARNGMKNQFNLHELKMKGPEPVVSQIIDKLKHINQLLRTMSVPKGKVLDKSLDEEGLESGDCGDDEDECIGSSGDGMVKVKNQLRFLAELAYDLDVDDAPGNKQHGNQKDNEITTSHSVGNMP

B1: 52H5D3B8 chimeric mAb (antibody, V domains shown)
VH: QVQLQQSGAELVRPGASVKLSCKALGYTFTDYEMHWVKQTPVHGLEWIGAIHPGSGGTAYNQKFKGKATLTADKFSSTGYMELSSLTSEDSAVYYCTRFYSYAYWGQGTLVTVSA
VL: DVVMTQTPLSLPVSLGDQASISCRSSQSLVHSNGNTYLQWYLQKPGQSPKLLIYKVSNRFSGVPDRFSGSGSGTDFILKISRVEAEDLGVYFCSQSIHVPYTFGGGTKLEIK
notes: also called 52H5D3B8-VH+VL; chimeric 52H5D3B8 mAb
As to B1, the EC50 in assay [1] amounted to 0.111 µg/mL; in [2], 0.217 µg/mL; in assay [3], 0.0795 µg/mL; in assay [4], 0.0563 µg/mL; in [5], 0.0705 µg/mL; in [6], 0.0477 µg/mL. The EC50 in assay [7] amounted to 4.95 µg/mL; in [8] it was 0.0152 µg/mL. In addition, the Kd in [9] stood at 1.41 nM; in [10], 0.843 nM. Further, the figures for the koff in assay [9] and in assay [10] were 0.00049 s⁻¹ and 0.000466 s⁻¹, respectively. Moreover, the values for the kon in assay [9] and in assay [10] were 347000 M⁻¹ s⁻¹ and 552000 M⁻¹ s⁻¹, respectively.
